Consider 5 molecules from publication doi:10.1101/2020.06.10.144725 (bioRxiv, 2020).

In data set [1] the target is Lip-NKD-HisC (lipoyl domain-tagged HisC of NKD1) (human (identical sequence in mouse and human)) (UniProt Q969G9). Nature of the data set: SEC. (In gel filtration, larger molecules generally elute earlier.)
Data set [2] has the same target. Kind of data set: co-aggregation assay.
The next data set has as its target T1, Lip-DVL2-PDZ (human, UniProt O14641 285-373).
T1 sequence: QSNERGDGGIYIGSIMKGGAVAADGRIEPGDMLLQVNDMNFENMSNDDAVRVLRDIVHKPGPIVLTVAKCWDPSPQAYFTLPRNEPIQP
Nature of the data set: ITC.

The data set “SEC-MALS” deals with the molecule itself. Kind of data set: SEC-MALS.

Sequence of Lip-NKD-HisC (lipoyl domain-tagged HisC of NKD1) (human (identical sequence in mouse and human)) (Q969G9 whole entry, the tested form may be a part): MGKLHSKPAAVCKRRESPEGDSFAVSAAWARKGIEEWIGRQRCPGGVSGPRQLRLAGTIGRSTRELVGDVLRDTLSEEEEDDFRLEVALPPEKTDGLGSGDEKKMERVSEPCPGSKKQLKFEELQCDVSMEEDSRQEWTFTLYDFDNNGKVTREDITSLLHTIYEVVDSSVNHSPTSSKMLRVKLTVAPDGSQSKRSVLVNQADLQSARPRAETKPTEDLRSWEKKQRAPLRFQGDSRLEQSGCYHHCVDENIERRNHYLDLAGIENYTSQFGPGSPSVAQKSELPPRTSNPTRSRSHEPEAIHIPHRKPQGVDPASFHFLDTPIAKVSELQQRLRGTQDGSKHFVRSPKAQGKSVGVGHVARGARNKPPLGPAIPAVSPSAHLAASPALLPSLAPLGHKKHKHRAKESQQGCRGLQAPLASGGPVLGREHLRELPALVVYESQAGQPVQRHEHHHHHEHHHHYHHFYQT

In data set [1], “Lip-NKD-HisC (lipoyl domain-tagged HisC of NKD1) (from UniProt Q969G9 1-470) (domain or fragment)” came in with a stoichiometry N of 15 to 25. In data set [2], “MBP-Axin1-HisC (from UniProt O15169 1-862) (domain or fragment)” showed a molecules per core (molecules per core) of under 5. MBP-Axin2-HisC (domain or fragment): in data set [2], the molecules per core (molecules per core) was under 4. In turn, “MBP-NKD-HisC (maltose-binding protein-tagged HisC of NKD1) (from UniProt Q969G9 1-470) (domain or fragment)” came in with a stoichiometry N in data set [2] of 10.

B1: RFP-NKD1-EF (domain or fragment)
chain: EPCPGSKKQLKFEELQCDVSMEEDSRQEWTFTLYDFDNNGKVTREDITSLLHTIYEVVDSSVNHSPTSSKMLRVKLTVAPD
Consider B1, for which, in the data set with Lip-DVL2-PDZ, the Kd was 3.2 ± 0.2 µM. Also, the “stoichiometry N” value in “SEC-MALS” turned out to be 2.

What is called stoichiometry N is the number of molecules, sites or subunits per partner or assembly. Usually Kd stands for the free concentration of one partner at which half of the binding sites on the other are occupied at equilibrium, for simple one-to-one binding. Read a low Kd as tighter binding.
